{"source": "patent US12202907B2", "about": "“Nucleic acids encoding and methods of producing proteins comprising antibody chains” (Innate Pharma, priority 2018, dated 2025)", "key": {"[1]": {"target": "T1, cell-membrane bound CD39 (Homo sapiens, UniProt P49961)", "T1 sequence (P49961 1-510)": "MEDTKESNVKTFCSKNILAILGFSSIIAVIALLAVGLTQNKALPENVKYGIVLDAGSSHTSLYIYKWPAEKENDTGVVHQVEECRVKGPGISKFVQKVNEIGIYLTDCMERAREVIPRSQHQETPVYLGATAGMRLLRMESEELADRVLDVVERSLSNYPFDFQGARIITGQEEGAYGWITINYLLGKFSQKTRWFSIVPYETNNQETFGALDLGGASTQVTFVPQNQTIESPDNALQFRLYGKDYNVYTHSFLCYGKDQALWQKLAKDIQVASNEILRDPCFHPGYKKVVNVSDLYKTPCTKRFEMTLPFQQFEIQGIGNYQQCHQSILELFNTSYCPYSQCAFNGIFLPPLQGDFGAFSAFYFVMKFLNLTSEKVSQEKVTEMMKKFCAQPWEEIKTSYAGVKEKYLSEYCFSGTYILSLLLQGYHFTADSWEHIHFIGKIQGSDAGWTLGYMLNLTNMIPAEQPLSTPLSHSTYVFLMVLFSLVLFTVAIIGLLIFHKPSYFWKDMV", "assay": "Inhibition of the enzymatic activity of cellular CD39 (cells not specified)", "format": "cell-based", "description": "The inhibition of the CD39 enzymatic activity in CD39-expressing cells by antibodies was evaluated using Cell Titer GIo™ (Promega, reference G7571) that allows assessment of ATP hydrolysis through use of a reagent that generates a luminescent signal proportional to the amount of ATP present. The assay was thus designed to permit assessment of the inhibition of ATP hydrolyzed by CD39 in the cell culture supernatant. Briefly, 5×10^4 Ramos human lymphoma cells, 5×10^3 human CD39−, cynomolgus CD39—and mouse CD39− expressing CHO cells, were incubated 1 hour at 37° C. with anti-CD39 antibodies from 30 μg/ml to 5×10^−4 μg/ml. Cells were then incubated with 20 μM ATP for 1 additional hour at 37° C. Plates were centrifuged for 2 min at 400 g and 50 μl cell supernatant are transferred in a luminescence microplate (white wells). 50 μl CellTiter-Glo™ Reagent (CTG) was added to the supernatant and emitted light was quantified after a 5 min incubation in the dark using a Enspire™ luminometer. Anti-CD39 antibody efficacy was determined by comparing emitted light in presence of antibody with ATP alone (maximal light emission) and ATP together with cells (minimal light emission)."}, "[2]": {"target": "T2, human Ramos lymphoma cells (CD39) (Homo sapiens, UniProt P49961)", "T2 construct": "cells that endogenously express CD39 at their surface; host or cells: Ramos", "T2 sequence (P49961 1-510)": "T1 sequence (P49961 1-510)", "assay": "Antibody titration on Ramos cells by flow cytometry", "format": "binding", "conditions": "qualitative", "description": "(§1) Antibody I-394 was tested in two repeated experiments for binding to CHO cells expressing human CD39, CHO cells expressing cynomolgus (Macaca fascicularis) CD39, CHO cells expressing murine CD39, and human Ramos lymphoma cells (ATCC™, reference CRL-1596). Cells were incubated with various concentration of unlabeled anti-CD39 antibody from 30 μg/ml to 5×10^−4 μg/ml, for 30 minutes at 4° C. After washes, cells were incubated with Goat anti-mouse H+L labeled secondary antibody for 30 min at 4° C."}, "[3]": {"system": "CHO cells expressing cynomolgus (Macaca fascicularis) CD39", "assay": "Antibody titration on CHO-cyCD39 by flow cytometry", "format": "binding", "conditions": "qualitative", "description": "as §1"}, "[4]": {"system": "CD4 or CD8 T cells", "assay": "T cell proliferation assay in the presence of added ATP", "format": "cell-based, human", "conditions": "for increase in potency of anti-CD73 antibodies: CD4 T cell proliferation", "description": "Peripheral blood from healthy donors was obtained from EFS, and mononuclear cells were isolated on a Ficoll™ gradient. Lymphocytes were further enriched on a 52% Percoll™ gradient by collection of the cell pellets and stained with a Cell Trace dye (Thermofisher) following the TDS provided by the manufacturer. […] to 1×10^5 of stained cells were distributed in 96 round-bottom plates, incubated for 1 hour at 37° C. with anti-huCD73 antibodies (antibody 6E1 described in WO2016/131950) and/or anti-huCD39 Abs (I-394 described herein) and activated for 3 to 5 days by addition of anti-CD3/anti-CD28-coated beads (bead:cell=1:4; Life Technologies). Inhibition of T cell proliferation was achieved by addition of ATP (200 μM). T cell proliferation and ability of Abs to block immune suppressive effect of AMP were assessed by flow cytometry by quantifying the dye dilution in the proliferating T cell subset.\nPercentage of proliferating T cells vs. anti-CD73 Ab concentration is plotted in graphs using GraphPad Prism™ software."}, "[5]": {"assay": "Aggregation temperature (thermal shift stability assay)", "format": "physicochemical", "conditions": "human IgG1 with L234A/L235E/G237A/A330S/P331S", "description": "Antibodies mAb1-24 and prior art anti-CD39 antibody BY40, all produced as human IgG1 isotypes with L234A/L235E/G237A/A330S/P331S substitutions were tested for stability in the following reference formulation at a concentration of approximatively 7 mg/mL: pH 6.0; histidine buffer (10 mM); sucrose (200 mM); NaCl (50 mM); Polysorbate 80 (PS80) (0.2 g/L). The stability of the formulations was monitored in two storage conditions (at +5° C.±3° C. and at +40±3° C. For each study, 3 time points were performed: T0, T15D (15 days) and T1M (1 month). A freeze thaw (F/T) and a thermal shift stability assay (TSSA) were conducted for the format comparison. To perform F/T cycles, the samples were frozen at least 2 hours at −20° C. and thawed at least 1 hour at room temperature, the F/T cycle is repeated three times and samples are tested 24 h after the last Freeze/Thaw cycle. At each time point, the following tests were performed: • Particulate Matter (MFI) • Visual Inspection (Appearance) • Impurities (SE-HPLC) • Turbidity (400 nm) • Protein Concentration (280 nm) (performed with Nanodrop, Thermo Fisher Scientific Inc.)"}, "[6]": {"target": "T3, CD39 (Homo sapiens, UniProt P49961)", "T3 sequence (P49961 1-510)": "T1 sequence (P49961 1-510)", "assay": "ELISA titration on huCD39 (vascular isoform)", "format": "binding", "set-up": "made in house", "description": "Antibody I-394 was tested for binding to recombinant human CD39 isoforms (Rec-huCD39 isoforms) having amino acid sequences shown below were coated in 96-well plate in PBS 1X at 500 ng/ml or 1 μg/ml at 4° C. overnight. Wells were washed in TBS Tween® 20 (polysorbate 20), and further saturated 2H at RT in TBS Blocking buffer. Dose range concentration of primary antibody was incubated in TBS blocking buffer for 2 h at RT. Wells were washed in TBS Tween® 20 (polysorbate 20). […] Optical density was measured on Enspire™ at OD=450."}}}
{"substance": "I-394: anti-CD39 antibody, VH SEQ ID NO: 6, VL SEQ ID NO: 7, human IgG1 Fc with L234A/L235E/G237A/A330S/P331S", "values": [{"measurement": "potency and maximal inhibition of cellular CD39 compared to BY40", "setting": "[1]; FIG. 2A", "result": "greater potency and maximal inhibition of cellular CD39 compared to BY40"}, {"measurement": "inhibition of cell-membrane bound (cellular) CD39 ATPase activity", "setting": "[1]; qualitative", "result": "inhibit cell-membrane bound CD39"}, {"measurement": "binding to Ramos lymphoma cells", "setting": "[2]", "result": "bound"}, {"measurement": "binding to cells expressing cynomolgus CD39 (CHO-cyCD39)", "setting": "[3]", "result": "bound"}, {"measurement": "potentiation of anti-CD73 antibodies in restoring CD4 or CD8 T cell proliferation", "setting": "[4]; ATP 200 μM, combination with anti-CD73 antibody 6E1", "result": "strongly potentiation the effect of anti-CD73 antibodies in restoring CD4 or CD8 T cell proliferation"}, {"measurement": "increase in potency of anti-CD73 antibodies", "setting": "[4]; anti-CD39 at 0.01 μg/ml", "result": "approximately 1 log"}, {"measurement": "increase in potency of anti-CD73 antibodies", "setting": "[4]; anti-CD39 at 0.1 μg/ml", "result": "approximately 4 log"}, {"measurement": "enhancement of CD4 or CD8 T cell proliferation, alone without anti-CD73", "setting": "[4]; concentrations of 0.1 μg/ml and 1 μg/ml, ATP 200 μM", "result": "remarkable enhancement of CD4 or CD8 T cell proliferation"}, {"measurement": "Aggregation temperature (TAgg)", "setting": "[5]", "result": "~70", "unit": "°C"}, {"measurement": "binding to CD39 in ELISA", "setting": "[6]", "result": "bound to the CD39"}]}
